The record followed here is article PMC7896505, “Expression, purification, crystallization and preliminary X-ray crystallographic studies of a mitochondrial membrane-associated protein Cbs2 from Saccharomyces cerevisiae” (PeerJ, 2021).

This data set deals with the molecule itself. The data set can be described thus: SEC; Superdex 200 10/300 in buffer G (20 mM Tris-HCl pH 7.5, 100 mM NaCl, 2 mM DTT); molecular weight from a calibration curve (Gel Filtration Calibration Kits HMW and LMW); peak at approximately 90 KDa against about 44 KDa on SDS-PAGE.

B1: Cbs2 from Saccharomyces cerevisiae (natural protein, S. cerevisiae, UniProt P14905 1-389, looked up)
chain: MSSSIPRVYSLGNSAMTYLLALRIAQLPSQPKVPSVVLLLNDQKKLNRFLNNDSKIIVKSSNNNKETYHRQFMASCVPPILSNGEIAPIENLIVSDPSSKFITAQLSKYNKSLRPETNILFLNPSLNLLEHLHRYRWRFDEARPNLFMGFTTPVDVGTIHQEFQLSLKVKGRIQFHIAKIDGFPRMSSTGKSASLSLRGDRQKNEKENNAFYKLFREISRLRSGIGSDLVSFDLHVHGFQDLFFTELEKLILESCTEPLLAVYDCVYKKELLKIPGAQDIIKKLISEQLSIIDRSYPSLNTNPNYSVIFDKERIFSLVMRDLEVNGHKRAKLAQSLNQLNQTNINELNGFFVSLGKYKKCNCKWNDILLTLIKGKQFITKQKALDYHYL
notes: 389 amino acids; The selenomethionine derivative (Se-Cbs2) was used only for crystallization; also called recombinant Cbs2; Cbs2-His tag; source: E. coli C43 (DE3), purified (Ni-NTA, Hitrap Q anion exchange, Superdex 200 gel filtration)
B1: the “stoichiometry N” value is 2.
